From article PMC10030117 (eLife, 2023) come the findings set out here.

This assay has as its target T1, HKU1 spike (2P-stabilized ectodomain with foldon) (HCoV-HKU1, isolate N5 (as in PDB 5I08), UniProt Q0ZME7, stabilised).
T1 construct: source: ExpiCHO or Freestyle 293F cells, purified
Kind of assay: ELISA. Particulars: both partners purified. In general terms: ELISA stands for enzyme-linked immunosorbent assay.

Where a chain is given by its changes, count along the chain named.

B1: Antibody 3A3, full-length (mouse variable region-human IgG1 constant region chimera) (antibody, V domains shown)
VH: QVQLQQSGAELLKPGASVKLSCTASGFNIKDTYIHWLKQRPEQGLEWIGRIGPAIGNTIYAPKFQGKATITTDTSSNTAYLQLSSLTSEDTAVYYCARYYGSSYYYFDYWGQGTTLTVSS
VL: DIVMTQSAPSVPVTPGESVSISCRSSKSLLHSNGNTYLYWFLQRPGQSPQLLIYRMSNLASGVPDRFSGSGSGTAFTLRISRVEAEDVGVYYCMQYLEYPLTFGAGTKLELK
In the case of B1, the binding result is on record as “binds”.

B2: Antibody RAY53, full-length human IgG1 (antibody, V domains shown)
VH: QVQLVQSGAVVLKPGASVKLSCKASGFNIKNTYIHWLKQAPGQRLEWIGRIGPAIGNTIYAPKFQGKATITTDTSASTAYLELSSLRSEDTAVYYCARYYGSSYYYLDYWGQGTTVTVSS
VL: B1 VL with A8P, P9L, S18P, R44K, Y54A, N58T, R79K, L111I
With B2, the binding result is “binds”.
